Legend:
Assay in all cases: Biacore 3000, 25 °C, alanine scan: N-biotinylated peptide on SA chip, G1 Fab titrated; fold loss versus wild-type 25-37 fragment
S34A = biological target: T1, S34A
T1 sequence (peptide, N-terminal biotin): NNFVPTNVGAKAF

F37A = biological target: T2, F37A
T2 sequence (peptide, N-terminal biotin): NNFVPTNVGSKAA

G33A = biological target: T3, G33A
T3 sequence (peptide, N-terminal biotin): NNFVPTNVASKAF

B1: Fab fragments of antibody G1 (Fab, V domains shown)
VH: EVQLVESGGGLVQPGGSLRLSCAASGFTFSNYWISWVRQAPGKGLEWVAEIRSESDASATHYAEAVKGRFTISRDNAKNSLYLQMNSLRAEDTAVYYCLAYFDYGLAIQNYWGQGTLVTVSS
VL: EIVLTQSPATLSLSPGERATLSCKASKRVTTYVSWYQQKPGQAPRLLIYGASNRYLGIPARFSGSGSGTDFTLTISSLEPEDFAVYYCSQSYNYPYTFGQGTKLEIK
S34A
  Fold loss in affinity: 10.9 fold
F37A
  Fold loss in affinity: 339 fold
G33A
  Fold loss in affinity: 504 fold
